According to article PMC10213629 (2023):

B1: CrcA (PA1677), His-tag removed (natural protein)
chain: MPHPLTLLQISGRGYPPAPLRQSTLLIIDAQEEYRSGALRLPGLDAAAAEIGVLVQAARASGTPIVHVRHLGIQGGLFDPQGPRGQFLPELQPEAGEKVVEKRLPNAFSGTELHDLLQNHGRLDLIVCGFMTHSSVSTTVRAAKDYGYRCTLADSACATRDIPTLNGGVLSAADLQRAEIAALGDNFAAIVAQARELL
B2: Crc (catabolite repression control protein), His-tag removed (natural protein)
chain: MRIISVNVNGIQAAAERGLLSWLQAQNADVICLQDTRASAFDLDDPSFQLDGYFLYACDAELPEQGGVALYSRLQPKAVISGLGFETADRYGRYLQADFDKVSIATLLLPSGQSGDESLNQKFKFMDDFTHYLSKQRRKRREYIYCGSLYVAHQKMDVKNWRECQQMPGFLAPERAWLDEVFGNLGYADALREVSREGDQFSWWPDSEQAEMLNLGWRFDYQVLTPGLRRFVRNAKLPRQPRFSQHAPLIVDYDWQLSI

Experiments:
[1] = biological target: B1; assay: grating-coupled interferometry; CrcA immobilised (9.5 ng/mm^2); Crc 20 μM to 156.25 nM; ES-buffer, 25°C; equilibration curve analysis
[2] = biological target: B1; assay: grating-coupled interferometry; CrcA immobilised by amine coupling (9.5 ng/mm^2); Crc 20 μM to 156.25 nM; ES-buffer, 25°C; heterogeneous ligand model
[3] = biological target: Strep-CrcA (Strep-PA1677; catabolite repression control protein antagonist) (Pseudomonas aeruginosa PAO1); assay: SEC-MALS; Strep-CrcA; experimental mass compared with the expected mass of a dimer
[4] = biological target: B2; assay: immobilized CrcA; kd1 heterogeneous ligand
[5] = biological target: B2; assay: immobilized CrcA; kd2 heterogeneous ligand, second site
[6] = biological target: B2; assay: immobilized CrcA; KD2 heterogeneous ligand, second site
[7] = biological target: Crc (catabolite repression control protein), His-tag removed (Pseudomonas aeruginosa PAO1) (UniProt Q51380); assay: grating-coupled interferometry; Crc immobilised (15 pg/mm^2); CrcA 20 μM to 156.25 nM; ES-buffer, 25°C; equilibration curve analysis
[8] = biological target: Crc (catabolite repression control protein), His-tag removed (Pseudomonas aeruginosa PAO1) (UniProt Q51380); assay: grating-coupled interferometry; Crc immobilised by amine coupling (15 pg/mm^2); CrcA 20 μM to 156.25 nM; ES-buffer, 25°C; 1:1 kinetic fit
[9] = biological target: T1, PAO1 Hfq protein, purified (Pseudomonas aeruginosa PAO1, UniProt Q9HUM0 1-82); assay: Hfq in complex with amiE6ARN RNA; KD1 heterogeneous ligand
T1 chain: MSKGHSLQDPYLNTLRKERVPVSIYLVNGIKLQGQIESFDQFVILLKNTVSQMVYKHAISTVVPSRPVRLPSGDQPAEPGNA

[10] = biological target: B1; assay: immobilized Crc
[11] = biological target: T1, PAO1 Hfq protein, purified; assay: Hfq in complex with amiE6ARN RNA; kd2 heterogeneous ligand, second site
[12] = biological target: T1, PAO1 Hfq protein, purified; assay: Hfq in complex with amiE6ARN RNA; kd1 heterogeneous ligand

Q: What does the source list for “Crc (catabolite repression control protein), His-tag removed (from UniProt Q51380 1-259) (natural protein)”?
A: Kd [1]: 7.14 µM; KD1 [2]: 8.35 µM

Q: Which stoichiometry N [3] does the source give for “Strep-CrcA (Strep-PA1677; catabolite repression control protein antagonist) (natural protein)” here?
A: Its stoichiometry N is 2.

Q: How did the koff [4] turn out when B1 was run?
A: Its koff is 0.653 s⁻¹.

Q: And the koff [5]?
A: The koff was 0.0454 s⁻¹.

Q: And the Kd [6]?
A: The Kd was 3.93 µM.

Q: And the Kd [7]?
A: The Kd was 12 µM.

Q: And the Kd [8]?
A: Its Kd is 11 µM.

Q: Which results are given for B2?
A: Kd [9]: 0.402 µM; koff [10]: 2.45 s⁻¹; koff [11]: 0.00786 s⁻¹; koff [12]: 0.374 s⁻¹
